Experimental findings from patent US20250270328A1 (BRIGHAM AND WOMEN S HOSPITAL, published 2025) are described below.

The experiment deals with T1, human KLRB1 protein extracellular domain (ECD) (human, UniProt Q12918 67-225).
T1 construct: range 67-225; The ELISA and SPR text says only 'human KLRB1 ECD'; also called human KLRB1 ECD; CD161
T1 sequence (looked up): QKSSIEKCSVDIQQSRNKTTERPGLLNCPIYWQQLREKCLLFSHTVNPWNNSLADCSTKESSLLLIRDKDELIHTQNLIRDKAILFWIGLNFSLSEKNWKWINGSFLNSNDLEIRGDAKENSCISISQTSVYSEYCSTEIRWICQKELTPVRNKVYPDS
Description: SPR, human KLRB1 ECD; format not stated. The protocol: The chimeric antibody 10A3D6-hIgGlk (a mouse/human chimeric antibody with 10A3D6 variable regions and human IgG1-kappa constant regions), chimeric mutated variants (10A3D6C109S, 10A3D6C109F, and 10A3D6C109V), and humanized variants of 10A3D6 created by CDR grafting (Almagro et al. 2008) were assayed for binding against human KLRB1 extracellular domain (ECD) via surface plasma resonance (SPR).
In general terms: In SPR one partner is held on a chip, and binding of the other changes the refractive index at the surface.

B1: 10A3D6C109Chum3.1 (antibody, V domains shown)
VH: QVQLVQSGAEVKKPGASVKVSCKASGYSFTGYTMNWVRQAHGQNLEWIGLINPNTGGTYYNQKFKDRVTLTVDTSISTAYMELSRLRSDDTAVYYCARLGDNYRGYFDCWGQGTTVTVSS
VL: DIQLTQSPSFLSASVGDRVTITCKASQDVGTAVVWYQQKPGKAPKLLIYWASIRHTGVPSRFSGSGSGTEFTLTISSLQPEDFATYYCQQYSTYLYTFGGGTKLEIK
notes: Humanized variant of 10A3D6 made by CDR grafting
As for B1, the Kd (usually the equilibrium constant for the complex coming apart) was 15.8 nM; the dissociation rate constant (koff) – broadly, the rate constant with which the complex falls apart – amounted to 0.00721 s⁻¹; the association rate constant (kon) – broadly, the second-order rate constant of association – is 457000 M⁻¹ s⁻¹.

B2: 10A3D6C109Chum4.3 (antibody, V domains shown)
VH: QVQLVQSGAEVKKPGASVKVSCKASGYSFTGYTMNWVRQAHGQNLEWIGLINPNTGGTYYNQKFKDRATLTVDTSISTAYMELSRLRSDDTAVYYCARLGDNYRGYFDCWGQGTTVTVSS
VL: DIQLTQSPSFLSASVGDRVTITCKASQDVGTAVVWYQQTPGKAPKLLIDWASIRHTGVPSRFSGSGSGTEFTLTISSLQPEDFADYFCQQYSTYLYTFGGGTKLEIK
notes: as for B1
In turn, B2 displayed a Kd of 0.127 nM, an off-rate constant (koff) of 0.000109 s⁻¹ and an on-rate constant (kon) of 851000 M⁻¹ s⁻¹.

B3: 10A3D6C109Chum3.3 (antibody, V domains shown)
VH: QVQLVQSGAEVKKPGASVKVSCKASGYSFTGYTMNWVRQAHGQNLEWIGLINPNTGGTYYNQKFKDRVTLTVDTSISTAYMELSRLRSDDTAVYYCARLGDNYRGYFDCWGQGTTVTVSS
VL: DIQLTQSPSFLSASVGDRVTITCKASQDVGTAVVWYQQTPGKAPKLLIDWASIRHTGVPSRFSGSGSGTEFTLTISSLQPEDFADYFCQQYSTYLYTFGGGTKLEIK
notes: as for B1
Regarding B3, binding was put at a Kd of 0.109 nM, the koff was determined as 9.89e-05 s⁻¹ and the kon worked out at 905000 M⁻¹ s⁻¹.

B4: 10A3D6C109Chum4.2 (antibody, V domains shown)
VH: QVQLVQSGAEVKKPGASVKVSCKASGYSFTGYTMNWVRQAHGQNLEWIGLINPNTGGTYYNQKFKDRATLTVDTSISTAYMELSRLRSDDTAVYYCARLGDNYRGYFDCWGQGTTVTVSS
VL: DIQLTQSPSFLSASVGDRVTITCKASQDVGTAVVWYQQKPGKAPKLLIDWASIRHTGVPSRFSGSGSGTEFTLTISSLQPEDFADYFCQQYSTYLYTFGGGTKLEIK
notes: as for B1
Regarding B4, the Kd was determined as 0.121 nM, the dissociation rate constant (koff) is 0.000107 s⁻¹ and the association rate constant (kon) is 880000 M⁻¹ s⁻¹.

B5: 10A3D6C109Chum3.4 (antibody, V domains shown)
VH: QVQLVQSGAEVKKPGASVKVSCKASGYSFTGYTMNWVRQAHGQNLEWIGLINPNTGGTYYNQKFKDRVTLTVDTSISTAYMELSRLRSDDTAVYYCARLGDNYRGYFDCWGQGTTVTVSS
VL: DIQLTQSPSFLSASVGDRVTITCKASQDVGTAVVWYQQTPGKAPKLLIDWASIRHTGVPDRFSGSGSGTEFTLTISSLQPEDFADYFCQQYSTYLYTFGGGTKLEIK
notes: as for B1
As to B5, the Kd amounted to 0.0907 nM, the off-rate (koff) is 9.2e-05 s⁻¹ and the kon came to 1.01e+06 M⁻¹ s⁻¹.

B6: 10A3D6C109Chum3.2 (antibody, V domains shown)
VH: QVQLVQSGAEVKKPGASVKVSCKASGYSFTGYTMNWVRQAHGQNLEWIGLINPNTGGTYYNQKFKDRVTLTVDTSISTAYMELSRLRSDDTAVYYCARLGDNYRGYFDCWGQGTTVTVSS
VL: DIQLTQSPSFLSASVGDRVTITCKASQDVGTAVVWYQQKPGKAPKLLIDWASIRHTGVPSRFSGSGSGTEFTLTISSLQPEDFADYFCQQYSTYLYTFGGGTKLEIK
notes: as for B1
The molecule B6 returned an equilibrium dissociation constant (Kd) of 0.135 nM, an off-rate (koff) of 0.000112 s⁻¹ and an association rate constant (kon) of 832000 M⁻¹ s⁻¹.

B7: 10A3D6C109Chum4.1 (antibody, V domains shown)
VH: QVQLVQSGAEVKKPGASVKVSCKASGYSFTGYTMNWVRQAHGQNLEWIGLINPNTGGTYYNQKFKDRATLTVDTSISTAYMELSRLRSDDTAVYYCARLGDNYRGYFDCWGQGTTVTVSS
VL: DIQLTQSPSFLSASVGDRVTITCKASQDVGTAVVWYQQKPGKAPKLLIYWASIRHTGVPSRFSGSGSGTEFTLTISSLQPEDFATYYCQQYSTYLYTFGGGTKLEIK
notes: as for B1
The molecule B7 came in with a Kd of 21.7 nM, a koff of 0.00253 s⁻¹ and an on-rate (kon) of 117000 M⁻¹ s⁻¹.
